Reference: PMC9671860

Legend:
[1] = molecular target: Enterococcus faecalis FabO 3-ketoacyl-ACP synthase I, hexahistidine-tagged (Enterococcus faecalis (strain FA2-2)); test: SEC
[2] = molecular target: Enterococcus faecalis FabN dehydratase/isomerase, hexahistidine-tagged (Enterococcus faecalis (strain FA2-2)); test: SEC

Substance	stoichiometry N [1]	stoichiometry N [2]
Enterococcus faecalis FabO 3-ketoacyl-ACP synthase I, hexahistidine-tagged (enzyme)	2	
Enterococcus faecalis FabN dehydratase/isomerase, hexahistidine-tagged (enzyme)		6
